Consider one molecule from US20050249730A1 (PIERRE FABRE MEDICAMENT, published 2005).

For this assay, the target named is T1, insulin receptor isoform A (IR-A) from lysates of R-/IR-A cells (UniProt P06213-2 28-1370).
T1 construct: Whole receptor in the lysate of R- fibroblasts stably transfected with IR-A cDNA
Nature of the assay: immunoprecipitation from R-/IR-A cell lysate, SDS-PAGE, immunoblot with anti-IR beta-subunit.

T1 sequence (P06213 other isoform, or with tags, fused parts or gaps limits assumed): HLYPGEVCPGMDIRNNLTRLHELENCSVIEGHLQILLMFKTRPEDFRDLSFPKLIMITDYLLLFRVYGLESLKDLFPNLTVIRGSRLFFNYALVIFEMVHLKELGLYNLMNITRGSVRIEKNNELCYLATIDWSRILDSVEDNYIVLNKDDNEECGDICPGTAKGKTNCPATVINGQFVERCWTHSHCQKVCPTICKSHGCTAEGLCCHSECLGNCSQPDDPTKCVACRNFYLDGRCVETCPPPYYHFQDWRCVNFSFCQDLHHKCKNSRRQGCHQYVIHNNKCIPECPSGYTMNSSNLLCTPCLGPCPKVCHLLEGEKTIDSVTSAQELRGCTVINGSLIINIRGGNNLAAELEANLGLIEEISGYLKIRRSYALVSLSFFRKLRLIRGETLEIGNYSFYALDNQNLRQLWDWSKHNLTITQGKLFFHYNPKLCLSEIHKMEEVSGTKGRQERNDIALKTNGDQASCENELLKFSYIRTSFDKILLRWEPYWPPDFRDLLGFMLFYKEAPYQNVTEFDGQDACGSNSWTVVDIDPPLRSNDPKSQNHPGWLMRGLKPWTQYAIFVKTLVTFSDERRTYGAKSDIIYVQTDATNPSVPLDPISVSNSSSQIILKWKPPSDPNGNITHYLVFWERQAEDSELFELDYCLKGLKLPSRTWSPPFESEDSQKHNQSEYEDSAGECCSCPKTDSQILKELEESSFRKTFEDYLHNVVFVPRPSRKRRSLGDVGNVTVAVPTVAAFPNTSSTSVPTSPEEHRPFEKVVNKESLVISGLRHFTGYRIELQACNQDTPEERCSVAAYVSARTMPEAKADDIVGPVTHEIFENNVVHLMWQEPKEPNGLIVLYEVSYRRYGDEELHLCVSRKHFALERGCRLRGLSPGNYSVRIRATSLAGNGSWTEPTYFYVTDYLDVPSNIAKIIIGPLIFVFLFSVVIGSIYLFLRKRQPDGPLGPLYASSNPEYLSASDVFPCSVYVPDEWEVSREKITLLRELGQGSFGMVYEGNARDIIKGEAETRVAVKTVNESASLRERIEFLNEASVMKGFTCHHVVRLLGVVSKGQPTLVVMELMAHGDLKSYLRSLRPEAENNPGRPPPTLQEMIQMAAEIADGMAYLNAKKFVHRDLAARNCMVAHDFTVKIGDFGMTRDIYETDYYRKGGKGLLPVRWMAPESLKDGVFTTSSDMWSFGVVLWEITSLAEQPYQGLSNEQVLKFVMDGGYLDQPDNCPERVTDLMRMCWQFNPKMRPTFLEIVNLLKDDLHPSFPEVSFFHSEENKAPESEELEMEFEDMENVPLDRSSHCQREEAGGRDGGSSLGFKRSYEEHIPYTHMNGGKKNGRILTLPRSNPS

B1: humanized antibody h7C10 (humanized form 1 of 7C10: humanized 7C10 VH 1 with humanized 7C10 VL 1) (antibody, V domains shown)
VH: QVQLQESGPGLVKPSETLSLTCTVSGYSITGGYLWNWIRQPPGKGLEWMGYISYDGTNNYKPSLKDRITISRDTSKNQFSLKLSSVTAADTAVYYCARYGRVFFDYWGQGTLVTVSS
VL: DVVMTQSPLSLPVTPGEPASISCRSSQSIVHSNGNTYLQWYLQKPGQSPQLLIYKVSNRLYGVPDRFSGSGSGTDFTLKISRVEAEDVGVYYCFQGSHVPWTFGQGTKVEIK
notes: Human IgG1/kappa; also called 7H2HM; A2CHM
Take B1: the binding result is listed as “no binding”.
